Consider seven molecules from patent US20260167721A1 (ABLEXIS, published 2026).

By Kd is commonly meant the concentration at which binding is half-saturated. The term koff denotes the first-order rate constant of dissociation. The term kon denotes the second-order rate constant of association.

The target in test [1] is T1, recombinant CD3 proteins (UniProt P07766 23-126).
T1 construct: elsewhere it uses human CD3 E/D and E/G heterodimers
Kind of test: Octet BLI, recombinant CD3; Full R^2 0.9778. In general terms: BLI is a label-free optical method that tracks binding on a fibre tip over time.

Test [2] addresses T1, recombinant CD3 proteins. In words: Octet BLI, recombinant CD3; Full R^2 0.8423.
Test [3] deals with T1, recombinant CD3 proteins. In words: Octet BLI, recombinant CD3; Full R^2 0.9688.
The target of test [4] is T1, recombinant CD3 proteins. Kind of test: Octet BLI, recombinant CD3; Full R^2 0.9897.
Test [5] deals with T1, recombinant CD3 proteins. In words: Octet BLI, recombinant CD3; Full R^2 0.5677.
The target of test [6] is T1, recombinant CD3 proteins. Kind of test: Octet BLI, recombinant CD3; Full R^2 0.9599.
Test [7] has as its target T1, recombinant CD3 proteins. In words: Octet BLI, recombinant CD3; Full R^2 0.9829.

T1 sequence (P07766 23-126): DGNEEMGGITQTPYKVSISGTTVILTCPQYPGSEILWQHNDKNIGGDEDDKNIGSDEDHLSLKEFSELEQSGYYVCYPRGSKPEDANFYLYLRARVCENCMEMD

B1: CD3 × CD33-BspAb83 (bispecific antibody)
chain 1: EVQLVESGGGLVKPGGSLRLSCVASGFTFSRYSMNWVRQAPGKCLEWVSSISSSSRYTYYADSLKGRFIMSRDNAKNSLFLQMNSLRAEDTAVYYCARNLYNALDYWGQGTLVTVSSGGGGSGGGGSGGGGSGGGGSFMLTQPHSVSESPGKTVTISCTRSSGSIASNYVQWYQQRPGSSPTTVIYEDNQRPSGVPDRFSGSIDSSSNSASLTISGLQTEDEADYYCQSYDSSNRVFGCGTKLTVLDKTHTCPPCPAPEFEGGPSVFLFPPKPKDTLMISRTPEVTCVVVDVSHEDPEVKFNWYVDGVEVHNAKTKPREEQYNSTYRVVSVLTVLHQDWLNGKEYKCKVSNKALPASIEKTISKAKGQPREPQVYTLPPCREEMTKNQVSLWCLVKGFYPSDIAVEWESNGQPENNYKTTPPVLDSDGSFFLYSKLTVDKSRWQQGNVFSCSVMHEALHNHYTQKSLSLSPGK
chain 2: EVQLVQSGAEVKKPGSSVKVSCKASGYTITDSNIHWVRQAPGQSLEWIGYIYPYNGGTDYNQKFKNRATLTVDNPTNTAYMELSSLRSEDTAFYYCVNGNPWLAYWGQGTLVTVSSASTKGPSVFPLAPSSKSTSGGTAALGCLVKDYFPEPVTVSWNSGALTSGVHTFPAVLQSSGLYSLSSVVTVPSSSLGTQTYICNVNHKPSNTKVDKRVEPKSCDKTHTCPPCPAPEFEGGPSVFLFPPKPKDTLMISRTPEVTCVVVDVSHEDPEVKFNWYVDGVEVHNAKTKPREEQYNSTYRVVSVLTVLHQDWLNGKEYKCKVSNKALPASIEKTISKAKGQPREPQVCTLPPSREEMTKNQVSLSCAVKGFYPSDIAVEWESNGQPENNYKTTPPVLDSDGSFFLVSKLTVDKSRWQQGNVFSCSVMHEALHNRFTQKSLSLSPGK
chain 3: DIQLTQSPSTLSASVGDRVTITCRASESLDNYGIRFLTWFQQKPGKAPKLLMYAASNQGSGVPSRFSGSGSGTEFTLTISSLQPDDFATYYCQQTKEVPWSFGQGTKVEVKRTVAAPSVFIFPPSDEQLKSGTASVVCLLNNFYPREAKVQWKVDNALQSGNSQESVTEQDSKDSTYSLSSTLTLSKADYEKHKVYACEVTHQGLSSPVTKSFNRGEC
As for B1, in the test with recombinant CD3 proteins [1], the Kd was determined as 3.28 nM, the koff was 0.00134 s⁻¹ and the association rate constant (kon) was found to be 408000 M⁻¹ s⁻¹.

B2: CD3 × CD33-BspAb89 (bispecific antibody)
chain 1: not shown
chain 2: B1 chain 2
chain 3: B1 chain 3
Consider B2, for which, in the test with recombinant CD3 proteins [2], the Kd was 24.4 nM, the koff turned out to be 0.0578 s⁻¹ and the association rate constant (kon) turned out to be 2.37e+06 M⁻¹ s⁻¹.

B3: CD3 × CD33-BspAb88 (bispecific antibody)
chain 1: QVQLVQSGAEVKKPGASLKVSCKASGYTFTSYYMHWVRQAPGQCLEWMGIINPSNGNTISAQKFQGRVTMTRDTSTSTVYMEMSSLRSEDTAVYYCVRSWGYYVMDVWGQGTTVTVSSGGGGSGGGGSGGGGSGGGGSQTVVTQEPSFSVSPGGTVTLTCGLNSGSVSTSYYPSWYQQTPGQTPRTLIYSTNTRSSGVPDRFSGSILGNKAALTITGAQADDESDYYCVLYMGSGIWVFGCGTKLTVLDKTHTCPPCPAPEFEGGPSVFLFPPKPKDTLMISRTPEVTCVVVDVSHEDPEVKFNWYVDGVEVHNAKTKPREEQYNSTYRVVSVLTVLHQDWLNGKEYKCKVSNKALPASIEKTISKAKGQPREPQVYTLPPCREEMTKNQVSLWCLVKGFYPSDIAVEWESNGQPENNYKTTPPVLDSDGSFFLYSKLTVDKSRWQQGNVFSCSVMHEALHNHYTQKSLSLSPGK
chain 2: B1 chain 2
chain 3: B1 chain 3
Regarding B3, in the test with recombinant CD3 proteins [3], the dissociation constant (Kd) came out at 12.6 nM, the koff is 0.000778 s⁻¹ and the kon is 61800 M⁻¹ s⁻¹.

B4: CD3 × CD33-BspAb84 (bispecific antibody)
chain 1: EVQVAESGGGLVKPGGSLRLSCAASGFTFSRYSMNWVRQAPGKCLEWVSSISSSGSYTYYADSVKGRFTISRDNAKNSLYLQMNSLRAEDTAVYYCVRERGKGAGMDVWGQGTTVTVSSGGGGSGGGGSGGGGSGGGGSNFMLTQPHSVSESPGKTVTISCTRSSGSIASNYVQWYQQRPGSSPTTVIYEDNQRPSGVPDRFSGSIDSSSNSASLTISGLKTEDEADYYCQSYDSSNRVFGCGTKLTVLDKTHTCPPCPAPEFEGGPSVFLFPPKPKDTLMISRTPEVTCVVVDVSHEDPEVKFNWYVDGVEVHNAKTKPREEQYNSTYRVVSVLTVLHQDWLNGKEYKCKVSNKALPASIEKTISKAKGQPREPQVYTLPPCREEMTKNQVSLWCLVKGFYPSDIAVEWESNGQPENNYKTTPPVLDSDGSFFLYSKLTVDKSRWQQGNVFSCSVMHEALHNHYTQKSLSLSPGK
chain 2: B1 chain 2
chain 3: B1 chain 3
Consider B4, for which, in the test with recombinant CD3 proteins [4], the Kd turned out to be 24.6 nM, the koff was determined as 0.00671 s⁻¹ and the kon is 273000 M⁻¹ s⁻¹.

B5: CD3 × CD33-BspAb87 (bispecific antibody)
chain 1: EVQLVESGGGLVKPGGSLRLSCAASGFTVSNYSMNWVRQAPGKCLEWVSSISRSSSYIYYADSVKGRFTISRDNAKNSLFLQMNSLRAEDTAVYYCARERWELLYFDYWGQGTLVTVSSGGGGSGGGGSGGGGSGGGGSQTVVTQEPSFSVSPGGTVTLTCGLSSGSVSTSYYPSWYQQTPGQAPRTLIYSTNTRSSGVPDRFSGSILGNKAALTITGAQADDESDYYCVLYMGSGIWVFGCGTKLTVLDKTHTCPPCPAPEFEGGPSVFLFPPKPKDTLMISRTPEVTCVVVDVSHEDPEVKFNWYVDGVEVHNAKTKPREEQYNSTYRVVSVLTVLHQDWLNGKEYKCKVSNKALPASIEKTISKAKGQPREPQVYTLPPCREEMTKNQVSLWCLVKGFYPSDIAVEWESNGQPENNYKTTPPVLDSDGSFFLYSKLTVDKSRWQQGNVFSCSVMHEALHNHYTQKSLSLSPGK
chain 2: B1 chain 2
chain 3: B1 chain 3
Regarding B5, in the test with recombinant CD3 proteins [5], the dissociation constant Kd worked out at 5.17 nM, the dissociation rate constant (koff) was 0.00307 s⁻¹ and the on-rate constant (kon) came out at 594000 M⁻¹ s⁻¹.

B6: CD3 × CD33-BspAb86 (bispecific antibody)
chain 1: EVQLVESGGGLVKPGGSLRLSCAASGFTFSSYSMNWVRQAPGKCLEWVSSISRSGTYIYYADSVKGRFTISRDNAKNSLYLQMNSLRAEDTAVYYCARERWELLYFDYWGQGTLVTVSSGGGGSGGGGSGGGGSGGGGSQTVVTQEPSLTVSPGGTVTLTCASSTGAVTSGYYPNWFQQKPGQAPRALIYSTSNKHSWTPARFSGSLLGGKAALTLSGVQPEDEAEYYCLLYYGGAYVFGCGTKVTVLDKTHTCPPCPAPEFEGGPSVFLFPPKPKDTLMISRTPEVTCVVVDVSHEDPEVKFNWYVDGVEVHNAKTKPREEQYNSTYRVVSVLTVLHQDWLNGKEYKCKVSNKALPASIEKTISKAKGQPREPQVYTLPPCREEMTKNQVSLWCLVKGFYPSDIAVEWESNGQPENNYKTTPPVLDSDGSFFLYSKLTVDKSRWQQGNVFSCSVMHEALHNHYTQKSLSLSPGK
chain 2: B1 chain 2
chain 3: B1 chain 3
Regarding B6, in the test with recombinant CD3 proteins [6], the Kd was 54.2 nM, the koff turned out to be 0.0149 s⁻¹ and the kon was 276000 M⁻¹ s⁻¹.

B7: CD3 × CD33-BspAb85 (bispecific antibody)
chain 1: EVQLVESGGGLVKPGGSLRLSCAASGFTFSSYSMNWVRQAPGKCLEWVSSISRSSGYIFYADSVKGRFTISRDNAKNSLYLQMNSLRAEDTAVYYCVRERVGAGFDYWGQGTLVTVSSGGGGSGGGGSGGGGSGGGGSNFMLTQPHSVSESPGKTVAISCTRSSGSIASNYVQWYQQRPGSSPTAVIYEDNQRPSGVPDRFSGSIDSSSNSAFLTISGLKTEDEADYYCQSYDSSNRVFGCGTKLTVLDKTHTCPPCPAPEFEGGPSVFLFPPKPKDTLMISRTPEVTCVVVDVSHEDPEVKFNWYVDGVEVHNAKTKPREEQYNSTYRVVSVLTVLHQDWLNGKEYKCKVSNKALPASIEKTISKAKGQPREPQVYTLPPCREEMTKNQVSLWCLVKGFYPSDIAVEWESNGQPENNYKTTPPVLDSDGSFFLYSKLTVDKSRWQQGNVFSCSVMHEALHNHYTQKSLSLSPGK
chain 2: B1 chain 2
chain 3: B1 chain 3
Consider B7, for which, in the test with recombinant CD3 proteins [7], the dissociation constant (Kd) was found to be 60.8 nM, the dissociation rate constant (koff) turned out to be 0.0149 s⁻¹ and the kon is 246000 M⁻¹ s⁻¹.
